The assay concerns the target recombinant human glycine receptor α1 subunit (hGlyRα1) homopentamer, detergent solubilized (human) (UniProt P23415). The assay is described as follows: SEC.

For orientation: stoichiometry N means the number of molecules, sites or subunits per partner or assembly. “recombinant human glycine receptor α1 subunit (hGlyRα1) homopentamer, detergent solubilized (from UniProt P23415-2 29-449)”: the stoichiometry N amounted to 5.

Values taken from PMC4576506.
